Source: patent US20250163183A1 (COAGULANT THERAPEUTICS, published 2025)
Numbering of substitutions follows the chain as printed.

B1: SR16983-R2-P5-A12 (VHH)
VHH: QVQLVESGGGLVEAGGSLRLSCAASGRTFSSGALGWFRQAPGKEREFVATIRWSDERKQYSEFVKGRFTISRDSAKNTVYLQMNNLQPEDTAVYYCRSTVGNVLYWGQGTQVTVSS
B2: SR16983-R2-P4-E03 (VHH)
VHH: B1 VHH with E13Q
B3: SR16983-R3-P3-A08 (VHH)
VHH: EVQLVESGGGLVQAGGSLRLSCAASGRTFVGTYVMGWFRQAPGKAREFVAASSRSTGNTVYLDSVKGRFTVSRDDAKNTLYLQMNSLKPEDTAVYYCAARASINYNAANWPYWGQGTQVTVSS
B4: SR16983-R3-P4-G01 (VHH)
VHH: B3 VHH with E1Q, V2L, T32S, A45E, V71I, T79M, A99T, A107Y
B5: SR16983-R2-P2-D05 (VHH)
VHH: QVQLVESGGGLVQPGGSLTLSCAASGTIESINDMGWYRQAPGKQRELVAAITSGGSTNYADSVKGRFTISRDNAKNTVYLQMNSLKPEDTAVYYCNAEVKRHYYYDSAGHRYWGQGTQVTVSS
B6: SR16983-R3-P2-F07 (VHH)
VHH: QLQLVESGGGLVQAGGSLRLSCAASGTTFDMNSMGWYRQAPGFKRDLVATISIGGDTNYADSVKGRFTISRDNAKNTVYMQMNSLKPEDTAVYYCNAERIWPNRRSFWGQGTQVTVSS
B7: SR16983-R2-P2-D08 (VHH)
VHH: QLQLVESGGGLVQAGDSLRLSCALSGLAASTYAMAWFRQAPGKEREFVSVIDWKGDSTTANSVKGRFTISRDHGKNTVYLQMNSLQPEDTALYYCAARGSPGYVAKLYAHWGRGTQVTVSS
B8: SR16983-R3-P3-F01 (VHH)
VHH: B7 VHH with Q1E, L2V, L24R, A28T, S57T, T59Y, H73N, G102A, K106R, H110Y
B9: SR16983-R3-P4-A08 (VHH)
VHH: B7 VHH with A23V, L24F, A28T, S57T, T59Y, H73N, K75N, N76K, K106R
B10: SR16983-R2-P4-G02 (VHH)
VHH: QLQLVESGGGLVQAGGSLRLSCAASGTTFSFVYMGWYRQAPGNQRDLVARISSDGSTNYADSVKGRFTISGDNAKNTVYLQMNSLRPEDTARYYCFYNGHLNKWGQGTQVTVSS
B11: SR16983-R2-P2-F02 (VHH)
VHH: B10 VHH with G71R
B12: SR16983-R2-P2-F07 (VHH)
VHH: B10 VHH with T27S, V32N, D54G, S56I, N76D, R86K, H100Y
B13: SR16983-R2-P2-H04 (VHH)
VHH: B10 VHH with L2V, Y37F, R86K, Y94F, G99A
B14: SR16983-R2P1F04 (VHH)
VHH: B10 VHH with G26R, V32N, D54G, S56I, R86K
B15: SR16983-R3-P2-G01 (VHH)
VHH: B10 VHH with T27S, V32N, D54G, S56I, R86K, H100Y, Q106R
B16: SR16983-R3-P5-A11 (VHH)
VHH: B10 VHH with L2V, R19G, S84N, R86K, L101V
B17: SR16983-R3-P2-D01 (VHH)
VHH: EVQLVESGGGLVQAGGSLRLSCAASGFTFSTKWMYWVRQGPGKGLEWVSTIDASGGSTYYADSVKGRFTISRDNTEKKVYLQMNSLESADTAVYYCARSAGGQFRGRGTQVTVSS
B18: SR16983-R3-P3-H05 (VHH)
VHH: QVQLVESGGGLVQPGRSLRLSCAASGFTFSTKWMYWVRQGPGKGLERVAAIDAGGGSTYYADSVKGRFTISRDNSENTVYLQMNSLESADTAVYYCARSEGGLFRGRGTQVTVSA
B19: SR16983-R3-P5-C09 (VHH)
VHH: B18 VHH with V2L, R16G, G54S, E76K, V79L, L103Q, A115S
B20: SR16983-R2P1C11 (VHH)
VHH: QLQLVESGGGLVQSGGSLRLSCTASGSTVRVTAGGWYRQAPGNERELVADIDNGGRPTYADSVKGRFTISRDNAKNAVDLQMNNLKPEDTAVYYCFVIAIPDSAPRPRAYWGQGTQVTVSS
B21: SR16983-R2-P4-E06 (VHH)
VHH: QLQLVESGGDLVQAGGSLRLSCAASGFTLDDYAIGWFRQAPGKEREGVSCIASSDGSTYYADSVKGRFTISTDNAKNTVYLQMNSLKPEDTAVYYCARGGLLLPKPELFDSWGQGTQVTVSS
B22: SR16983-R3-P5-F04 (VHH)
VHH: B21 VHH with D10G, D110E, S111Y
B23: SR16983-R3P2B6 (VHH)
VHH: QLQLVESGGGLVQAGGSLRLACAASGFSFDDYAIGWFRQAPGKEREGVSCITSDGSTYYADSVKGRFTISSDNAKNTVYLQMNILKPEDTAVYYCARGGLLLPKPELFEYWGQGTQVTVSS
B24: SR16983-R3P2E05 (VHH)
VHH: QVQLVESGGGLVQAGGSLRLSCTTSGSTFSITAGGWYRQAPGEQRELVADVANDGSTSYAESVKGRFTISRDNAKNIVELQMSSLELEDTAVYVCFVVGISDSTPRPRAYWGQGTQVTVAS
B25: SR16983-R2-P3-B05 (VHH)
VHH: QLQLVESGGGLVQPGGSLRLSCAASGRTVGSYVMGWFRQAPGKEREFLAANSRSTGNTVYADSVKGRFTISRDDAKNTLYLQMNSLKPEDTAVYYCATRASINYNYANWPYWGQGTQVTVSS
B26: SR16983-R2-P4-D07 (VHH)
VHH: B25 VHH with L2V, P14A, V29I, L48V, A49V, N51F, N57H, T58I, V59S, T98A
B27: SR16983-R3-P3-E04 (VHH)
VHH: B25 VHH with L2V, P14A, V29F, L48V, N51A, A61P, T98A
B28: SR16983-R3-P4-E06 (VHH)
VHH: B25 VHH with P14A, V33A, M34V, G35A, F47L, N51S, S71A, T98A
B29: SR16983-R3-P5-F03 (VHH)
VHH: B25 VHH with L2V, P14A, S31T, V33A, M34I, L48V, N51F, A61P, T98A
B30: SR16983-R4-P1-C05 (VHH)
VHH: B25 VHH with P14A, V29F, E46A, L48V, A49G, N51A, N57T, A61L, T98A
B31: SR16983-R4-P1-A05 (VHH)
VHH: EVQLVESGGGLVQAGESLRLSCVLSGSTFGRNVITWYRQPPGKQREFIAMITTSGNTRYADSVKGRFTMSRDTAKNTAFLQMSNLKLEDTAVYYCWTAIAGQGEYWGQGTQVTVSS
B32: SR16983-R2P1C08 (VHH)
VHH: QVQLVESGGGLVQPGGSLRLSCAASGRTFSNYAMGWFRQAPGKERRFVAGISRDDTSTSYADSVKGRFTILRDRSKNTVDLQMNSLKPEDTAIYYCAAARGIYGEISRYTGDYDSWGQGTQVTVSS
B33: SR16983-R3-P5-A06 (VHH)
VHH: QLQLVESGGGLVQAGGSLRLSCVASGTTFTIEDIGWYRLAPGKQRELVAIISGGNTNYADSVKGRFTISRDNAKNTVYLQMNSLKPEDTAVYYCNGRTKATVKWGRGTQVTVSS
B34: SR16983-R2-P2-C04 (VHH)
VHH: QLQLVESGGGLVQAGGSLRLSCAASRTTFRINGVDWYRQVPGKQRELVATASSDGPTNYAESVKGRFTISRDNAKNTVYLQMNSLKPEDTAVYYCRIVLPSRIIWGQGTQVTVSS
B35: SR16983-R2-P2-G01 (VHH)
VHH: EVQLVESGGGLVQAGESLRLSCVVSGSRFRISGMGWYRQAPEKQRELVAAITRGGSTNYSDSVKGRFTISSDNAKNTVYLQMNSLKPDDTDVYYCAATVLDIPTMSTDDYWGQGTQVTVSS

Target: T1, human APC-PPACK (active site-blocked APC) (human, UniProt P04070 43-461, active site bound by the tripeptide inhibitor Phe-Pro-Arg-chloromethylketone (PPACK))
T1 construct: Bought (Haematologic Technologies)
T1 sequence (P04070 other isoform, or with tags, fused parts or gaps): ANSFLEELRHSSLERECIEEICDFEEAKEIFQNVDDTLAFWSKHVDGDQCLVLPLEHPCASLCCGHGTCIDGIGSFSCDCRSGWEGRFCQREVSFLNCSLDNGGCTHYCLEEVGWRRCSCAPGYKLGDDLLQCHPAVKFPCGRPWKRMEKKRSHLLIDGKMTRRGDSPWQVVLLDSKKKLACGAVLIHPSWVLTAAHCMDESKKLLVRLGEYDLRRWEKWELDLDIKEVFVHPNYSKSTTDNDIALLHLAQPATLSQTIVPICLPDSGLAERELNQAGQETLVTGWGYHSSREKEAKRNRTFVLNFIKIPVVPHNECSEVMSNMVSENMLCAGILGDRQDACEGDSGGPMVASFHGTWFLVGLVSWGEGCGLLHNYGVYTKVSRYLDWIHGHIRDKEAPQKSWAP
Experiment: ELISA

Row | Binder | binding result
1 | B1 | binds
2 | B2 | binds
3 | B3 | binds
4 | B4 | binds
5 | B5 | binds
6 | B6 | binds
7 | B7 | binds
8 | B8 | binds
9 | B9 | binds
10 | B10 | binds
11 | B11 | binds
12 | B12 | binds
13 | B13 | binds
14 | B14 | binds
15 | B15 | binds
16 | B16 | binds
17 | B17 | binds
18 | B18 | binds

Row | Binder | binding result
19 | B19 | binds
20 | B20 | binds
21 | B21 | binds
22 | B22 | binds
23 | B23 | binds
24 | B24 | binds
25 | B25 | binds
26 | B26 | binds
27 | B27 | binds
28 | B28 | binds
29 | B29 | binds
30 | B30 | binds
31 | B31 | binds
32 | B32 | binds
33 | B33 | binds
34 | B34 | binds
35 | B35 | binds

Target: T2, human protein C (PC) zymogen (human, UniProt P04070 43-197; P04070 200-461)
T2 construct: Bought
T2 sequence (P04070 43-197, chain 1 of 2): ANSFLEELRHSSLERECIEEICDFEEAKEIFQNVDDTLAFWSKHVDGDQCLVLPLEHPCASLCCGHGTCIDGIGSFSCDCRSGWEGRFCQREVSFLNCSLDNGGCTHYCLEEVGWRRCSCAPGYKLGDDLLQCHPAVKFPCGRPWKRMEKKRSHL
T2 sequence (P04070 200-461, chain 2 of 2): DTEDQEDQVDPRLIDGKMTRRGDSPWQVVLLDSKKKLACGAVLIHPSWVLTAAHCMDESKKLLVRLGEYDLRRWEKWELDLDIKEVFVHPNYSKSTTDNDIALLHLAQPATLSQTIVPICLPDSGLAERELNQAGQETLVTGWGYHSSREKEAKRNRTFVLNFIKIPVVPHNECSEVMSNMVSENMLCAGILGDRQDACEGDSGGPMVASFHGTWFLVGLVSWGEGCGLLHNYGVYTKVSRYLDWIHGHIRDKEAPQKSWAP
Experiment: ELISA

Row | Binder | binding result
36 | B4 | no binding
37 | B5 | no binding
38 | B7 | no binding
39 | B8 | no binding
40 | B9 | no binding
41 | B10 | no binding
42 | B14 | no binding
43 | B16 | no binding
44 | B20 | no binding
45 | B23 | no binding
46 | B24 | no binding

Target: T2, human protein C (PC) zymogen
Experiment: ELISA screen, PC-coated wells, OD450, n=2

Row | Binder | binding result
47 | B1 | no binding
48 | B2 | no binding
49 | B3 | no binding
50 | B6 | no binding
51 | B11 | no binding
52 | B12 | no binding
53 | B13 | no binding
54 | B15 | no binding
55 | B17 | no binding
56 | B18 | no binding
57 | B19 | no binding
58 | B21 | no binding
59 | B22 | no binding
60 | B25 | no binding
61 | B26 | no binding
62 | B27 | no binding
63 | B28 | no binding
64 | B29 | no binding
65 | B30 | no binding
66 | B31 | no binding
67 | B32 | no binding
68 | B33 | no binding
69 | B34 | no binding
70 | B35 | no binding
